From article PMC7157747

Molecular target: Recombinant Surface Immunogenic Protein (rSIP) of Group B Streptococcus, expressed in E. coli (Group B Streptococcus (GBS), serotype III)
Assay: SEC; Size exclusion chromatography by HPLC of purified rSIP; PSS-pro kit as standard curve for molecular mass; 6 M urea used as monomer control

Recombinant Surface Immunogenic Protein (rSIP) of Group B Streptococcus, expressed in E. coli (natural protein)
stoichiometry N: 2
